Measured values: patent US5948668

What was measured:
[1] = biological target: recombinant rat procarboxypeptidase B expressed by plasmid pλProCPB (rat)
[2] = biological target: recombinant rat procarboxypeptidase B with the Cys290->Ser mutation, expressed by plasmid pProCPB-C (rat)

## trypsin (enzyme)
[1]
  Specific Activity (u/mg) of CPB (Hippuryl-L-Arg substrate) after folding of ProCPB and trypsin treatment: 42.9 u/mg
[2]
  Specific Activity (u/mg) of CPB-C (Hippuryl-L-Arg substrate) after folding of ProCPB-C and trypsin treatment: 20.9 u/mg
